The source of these data is PMC6624373.

The labels stand for the following.
B1: lamin A (human, mature form, without tags, wild type) [human] / itself (parent)
chain: METPSQRRATRSGAQASSTPLSPTRITRLQEKEDLQELNDRLAVYIDRVRSLETENAGLRLRITESEEVVSREVSGIKAAYEAELGDARKTLDSVAKERARLQLELSKVREEFKELKARNTKKEGDLIAAQARLKDLEALLNSKEAALSTALSEKRTLEGELHDLRGQVAKLEAALGEAKKQLQDEMLRRVDAENRLQTMKEELDFQKNIYSEELRETKRRHETRLVEIDNGKQREFESRLADALQELRAQHEDQVEQYKKELEKTYSAKLDNARQSAERNSNLVGAAHEELQQSRIRIDSLSAQLSQLQKQLAAKEAKLRDLEDSLARERDTSRRLLAEKEREMAEMRARMQQQLDEYQELLDIKLALDMEIHAYRKLLEGEEERLRLSPSPTSQRSRGRASSHSSQTQGGGSVTKKRKLESTESRSSFSQHARTSGRVAVEEVDEEGKFVRLRNKSNEDQSMGNWQIKRQNGDDPLLTYRFPPKFTLKAGQVVTIWAAGAGATHSPPTDLVWKAQNTWGCGNSLRTALINSTGEEVAMRKLVRSVTVVEDDEDEDGDDLLHHHHGSHCSSSGDPAEYNLRSRTVLCGTCGQPADKASASGSGAQVGGPISSGSSASSVTVTRSYRSVGGSGGGSFGDNLVTRSY

The variants in one experiment derive from B1. The experiment is described as follows: rotary metal shadowing EM. Particulars: with itself; n = 1000 per mutant; parent: 22; read off a plot.
As to chain 1 R7E R8E, the screen value worked out at 13%.

The same experiment, now with this note: with itself; n = 1000 per mutant; parent: 35; read off a plot.
In the case of chain 1 R7E R8E, the screen value stood at 30%.

The experiment is the same for the next values; noted with them: with itself; n = 1000 per mutant; parent: 43; read off a plot.
Consider chain 1 R7E R8E, for which the screen value is 57%.

The variants in the next experiment derive from B1. The experiment is described as follows: in vitro assembly/solubility assay (centrifugation, SDS-PAGE band quantification). Particulars: with itself; oligomerisation buffer; n = 3 independent replicas; parent: 1; read off a plot.
Consider chain 1 R7E R8E, for which the ratio to parent was 3.7.
